The values below come from paper PMC11900802.

A short description of data set [1]: immunofluorescence, nuclear FOXD1. To be noted: glycan lost.
Another data set is described as follows: Western blot of FOXD1. Conditions: glycan lost; control: vector control. Background: In western blotting, separated proteins are transferred to a membrane and probed.

B1: FOXD1: tunicamycin (protein)
parent chain: MTLSTEMSDASGLAEETDIDVVGEGEDEEDEEEEDDDEGGGGGPRLAVPAQRRRRRRSYAGEDELEDLEEEEDDDDILLAPPAGGSPAPPGPAPAAGAGAGGGGGGGGAGGGGSAGSGAKNPLVKPPYSYIALITMAILQSPKKRLTLSEICEFISGRFPYYREKFPAWQNSIRHNLSLNDCFVKIPREPGNPGKGNYWTLDPESADMFDNGSFLRRRKRFKRQPLLPPNAAAAESLLLRGAGAAGGAGDPAAAAALFPPAPPPPPHAYGYGPYGCGYGLQLPPYAPPSALFAAAAAAAAAAAFHPHSPPPPPPPHGAAAELARTAFGYRPHPLGAALPGPLPASAAKAGGPGASALARSPFSIESIIGGSLGPAAAAAAAAQAAAAAQASPSPSPVAAPPAPGSSGGGCAAQAAVGPAAALTRSLVAAAAAAASSVSSSAALGTLHQGTALSSVENFTARISNC
On to B1, for which, in data set [1] (control: untreated), the localisation_or_trafficking entry is given as “decreases”.

B2: FOXD1: GEM+TM (protein)
parent chain: MTLSTEMSDASGLAEETDIDVVGEGEDEEDEEEEDDDEGGGGGPRLAVPAQRRRRRRSYAGEDELEDLEEEEDDDDILLAPPAGGSPAPPGPAPAAGAGAGGGGGGGGAGGGGSAGSGAKNPLVKPPYSYIALITMAILQSPKKRLTLSEICEFISGRFPYYREKFPAWQNSIRHNLSLNDCFVKIPREPGNPGKGNYWTLDPESADMFDNGSFLRRRKRFKRQPLLPPNAAAAESLLLRGAGAAGGAGDPAAAAALFPPAPPPPPHAYGYGPYGCGYGLQLPPYAPPSALFAAAAAAAAAAAFHPHSPPPPPPPHGAAAELARTAFGYRPHPLGAALPGPLPASAAKAGGPGASALARSPFSIESIIGGSLGPAAAAAAAAQAAAAAQASPSPSPVAAPPAPGSSGGGCAAQAAVGPAAALTRSLVAAAAAAASSVSSSAALGTLHQGTALSSVENFTARISNC
Take B2: in data set [1] (control: GEM alone), the localisation_or_trafficking result is listed as “decreases”.

B3: FOXD1: ALG3 knockdown (protein)
parent chain: MTLSTEMSDASGLAEETDIDVVGEGEDEEDEEEEDDDEGGGGGPRLAVPAQRRRRRRSYAGEDELEDLEEEEDDDDILLAPPAGGSPAPPGPAPAAGAGAGGGGGGGGAGGGGSAGSGAKNPLVKPPYSYIALITMAILQSPKKRLTLSEICEFISGRFPYYREKFPAWQNSIRHNLSLNDCFVKIPREPGNPGKGNYWTLDPESADMFDNGSFLRRRKRFKRQPLLPPNAAAAESLLLRGAGAAGGAGDPAAAAALFPPAPPPPPHAYGYGPYGCGYGLQLPPYAPPSALFAAAAAAAAAAAFHPHSPPPPPPPHGAAAELARTAFGYRPHPLGAALPGPLPASAAKAGGPGASALARSPFSIESIIGGSLGPAAAAAAAAQAAAAAQASPSPSPVAAPPAPGSSGGGCAAQAAVGPAAALTRSLVAAAAAAASSVSSSAALGTLHQGTALSSVENFTARISNC
On to B3, for which the expression_or_secretion entry in “Western blot of FOXD1” is recorded as “decreases”. The localisation_or_trafficking entry in data set [1] (control: vector control) is “decreases”.
